Blank lines part the entries; values can stand above or below the molecule they belong to.
Key:
[1] = molecular target: TSHR (thyroid stimulating hormone receptor), full length human (human) (UniProt P16473); test: competitor ^125I-K1-70 IgG, TSHR coated tubes; 10 µg/mL in HBD
[2] = molecular target: TSHR (thyroid stimulating hormone receptor), full length human (human) (UniProt P16473); test: competitor ^125I-K1-70 IgG, TSHR coated tubes; 0.1 µg/mL in HBD
[3] = molecular target: TSHR (thyroid stimulating hormone receptor), full length human (human) (UniProt P16473); test: competitor ^125I-K1-70 IgG, TSHR coated tubes; 1 µg/mL in assay buffer
[4] = molecular target: TSHR (thyroid stimulating hormone receptor), full length human (human) (UniProt P16473); test: competitor ^125I-K1-70 IgG, TSHR coated tubes; 100 µg/mL in assay buffer
[5] = molecular target: TSHR (full length) coated on tubes (human) (UniProt P16473); test: inhibition of 125I-K1-18 Fab (competitor) binding to TSHR coated tubes; test sample 1 µg/mL in assay buffer
[6] = molecular target: TSHR (full length) coated on tubes (human) (UniProt P16473); test: inhibition of 125I-K1-18 Fab (competitor) binding to TSHR coated tubes; test sample 100 µg/mL in assay buffer
[7] = molecular target: TSH receptor (TSHR), full length human, coated on tubes (human) (UniProt P16473); test: inhibition of 125I-K1-18 IgG binding to TSHR coated tubes; competitor 125I-K1-18 IgG; sample at 100 µg/mL in assay buffer
[8] = molecular target: TSH receptor (full length human TSHR) coated on tubes (human) (UniProt P16473); test: 125I-TSH binding inhibition read against NIBSC 90/672; 30 ng/mL, in assay buffer
[9] = molecular target: thyroid stimulating hormone receptor (TSHR), full length, coated on tubes (human) (UniProt P16473); test: inhibition of 125I-TSH binding, TSHR coated tubes; antibody 0.001 µg/mL in assay buffer; mean of duplicate
[10] = molecular target: TSHR with Glu251 mutated to Ala (human) (UniProt P16473); test: cell-based or functional assay
[11] = molecular target: TSHR with Tyr82 mutated to Ala expressed in CHO cells (human) (UniProt P16473); test: cell-based or functional assay
[12] = molecular target: TSHR with Thr257 mutated to Ala, expressed in CHO cells (human) (UniProt P16473); test: cell-based or functional assay
[13] = molecular target: wild type TSHR (human TSH receptor) expressed in CHO cells (human) (UniProt P16473); test: cell-based or functional assay
[14] = molecular target: thyroid stimulating hormone receptor (TSHR), full length human TSHR (human) (UniProt P16473); test: TSH-biotin competition ELISA, TSHR coated wells; negative control, 100 µg/mL in assay buffer
[15] = molecular target: human TSH receptor (full length) coated on ELISA plate wells (human) (UniProt P16473); test: TSH-biotin binding inhibition ELISA, TSHR coated wells; 10 µg/mL in assay buffer; negative control MAb
[16] = molecular target: human TSH receptor (full length) coated on ELISA plate wells (human) (UniProt P16473); test: TSH-biotin binding inhibition ELISA, TSHR coated wells; 100 µg/mL in assay buffer; negative control MAb
[17] = molecular target: human TSH receptor (full length) coated on ELISA plate wells (human) (UniProt P16473); test: TSH-biotin binding inhibition ELISA, TSHR coated wells; 1 µg/mL in assay buffer + 100 µg/mL 5B3 IgG; negative control MAb
[18] = molecular target: human TSH receptor (full length) coated on ELISA plate wells (human) (UniProt P16473); test: TSH-biotin binding inhibition ELISA, TSHR coated wells; 10 µg/mL in assay buffer + 100 µg/mL 5B3 IgG; negative control MAb
[19] = molecular target: TSH receptor (TSHR) coated on tubes (human) (UniProt P16473); test: inhibition of 125I-K1-70 IgG binding to TSHR coated tubes; negative control 100 µg/mL in HBD serum pool; duplicate determination
[20] = molecular target: human thyroid stimulating hormone receptor (TSHR), full length (human) (UniProt P16473); test: 125I-K1-18 Fab competition, TSHR coated tubes; 100 µg/mL in assay buffer
[21] = molecular target: human TSH receptor (full length) coated on ELISA plate wells (human) (UniProt P16473); test: TSH-biotin binding inhibition ELISA, TSHR coated wells; 1 µg/mL in assay buffer
[22] = molecular target: thyroid stimulating hormone receptor (TSHR), full length, coated on tubes (human) (UniProt P16473); test: inhibition of 125I-TSH binding, TSHR coated tubes; antibody 1 µg/mL in assay buffer
[23] = molecular target: TSH receptor (TSHR) coated on tubes (human) (UniProt P16473); test: inhibition of 125I-K1-70 IgG binding to TSHR coated tubes; sample 10 µg/mL in assay buffer
[24] = molecular target: human TSH receptor (full length) coated on ELISA plate wells (human) (UniProt P16473); test: TSH-biotin binding inhibition ELISA, TSHR coated wells; 100 µg/mL in assay buffer + 100 µg/mL 5B3 IgG
[25] = molecular target: thyroid stimulating hormone receptor (full length human TSHR) (human) (UniProt P16473); test: ELISA: inhibition of M22 Fab-peroxidase (competitor) binding to TSHR coated wells; 0.1 µg/mL, diluted in HBD serum pool
[26] = molecular target: thyroid stimulating hormone receptor (full length human TSHR) (human) (UniProt P16473); test: ELISA: inhibition of M22 Fab-peroxidase (competitor) binding to TSHR coated wells; 100 µg/mL, diluted in HBD serum pool

Inhibition of binding (%) [1]: 48%
Inhibition of binding (%) [2]: 14.8%
Inhibition of binding (%) [3]: 37.2%
Inhibition of binding (%) [4]: 61.4%
Inhibition of binding (%) [5]: 66.5%
Inhibition of binding (%) [6]: 81.5%
Inhibition of binding (%) [7]: 72.5%
Molecule: 9D33 IgG (antibody)

Inhibition of binding (%) [20]: 85.2%
% inhibition of TSH-biotin binding [21]: 42.9%
Inhibition of binding (%) [22]: 23.5%
Inhibition of binding (%) [23]: 84.8%
% inhibition of TSH-biotin binding [24]: 92.3%
Inhibition of binding (%) [25]: 6.3%
Inhibition of binding (%) [26]: 19.6%
B1: 5C9 IgG (antibody, from another filing, V domains shown)
VH: EVQLVESGGGLIQPGGSLRLSCAASGFTVSSNYMSWVRQAPGKGLEWVSVTYSGGSTSYADSVKGRFTISRDNSKNTLYLQMNSLRAEDTAVYYCARGGRYCSSISCYARSGCDYWGQGTLVTVSS
VL: AIQMTQSPSSLSASVGDRVTITCRASQSISNYLNWYQQKPGKAPKLLIYAASSLQSGVPSRFSGSGSGTDFTLTISSLQPEDFATYYCQQSYSSPSTTFGQGTKLEIK

The next lines start with the molecule.

Molecule: M22 IgG (antibody)
units/L [8]: 8.6 units/L
units/mg [8]: 287 units/mg
Inhibition of binding (%) [9]: 1.5%

Molecule: TSH (ligand)
Cyclic AMP produced (mean of duplicate), TSH 3 ng/mL [10]: 71.7 pmol/mL
Mutated/Wild type (%) of cyclic AMP produced, TSH 0.01 ng/mL [10]: 243%
Mutated/Wild type (%) of cyclic AMP produced, TSH 0.03 ng/mL [10]: 224%
Mutated/Wild type (%) of cyclic AMP produced, TSH 0.1 ng/mL [10]: 115%
Mutated/Wild type (%) of cyclic AMP produced, TSH 0.3 ng/mL [10]: 67%
Mutated/Wild type (%) of cyclic AMP produced, TSH 1 ng/mL [10]: 69%
Mutated/wild type (%) of cyclic AMP produced; TSH 3 ng/mL [10]: 66%
% inhibition of TSH stimulation; TSH (2); Experiment 1 [11]: 44%
% inhibition of TSH stimulation; TSH (2); Experiment 2 [11]: 22%
Cyclic AMP produced; TSH 3 ng/mL; Experiment 1 [11]: 166 pmol/mL
Cyclic AMP produced; TSH 3 ng/mL; Experiment 2 [11]: 74.6 pmol/mL
Cyclic AMP produced; TSH (2); Experiment 1 [11]: 92.3 pmol/mL
Cyclic AMP produced; TSH (2); Experiment 2 [11]: 57.9 pmol/mL
Mutated/wild type (%) of cyclic AMP produced; TSH 3 ng/mL; Experiment 1 [11]: 108%
Mutated/wild type (%) of cyclic AMP produced; TSH 3 ng/mL; Experiment 2 [11]: 125%
Mutated/wild type (%) of cyclic AMP produced; TSH (2); Experiment 1 [11]: 58%
Mutated/wild type (%) of cyclic AMP produced; TSH (2); Experiment 2 [11]: 94%

Molecule: 5B3 IgG (antibody)
% inhibition of TSH stimulation; 5B3 10 µg/mL [12]: 0%
% inhibition of TSH stimulation; 5B3 100 µg/mL [12]: 7%
Cyclic AMP produced; 5B3 10 µg/mL + TSH 3 ng/mL [12]: 94.2 pmol/mL
Cyclic AMP produced; 5B3 100 µg/mL + TSH 3 ng/mL [12]: 86.8 pmol/mL
Mutated/wild type (%) of cyclic AMP produced; 5B3 10 µg/mL + TSH 3 ng/mL [12]: 110%
Mutated/wild type (%) of cyclic AMP produced; 5B3 100 µg/mL + TSH 3 ng/mL [12]: 104%
Cyclic AMP produced; 5B3 10 µg/mL + TSH 3 ng/mL [13]: 85.9 pmol/mL
Cyclic AMP produced; 5B3 100 µg/mL + TSH 3 ng/mL [13]: 83.7 pmol/mL
Inhibition of binding (%) [14]: 1.3%
% inhibition of TSH-biotin binding [15]: 0.9%
% inhibition of TSH-biotin binding [16]: 8.3%
% inhibition of TSH-biotin binding [17]: -4.8%
% inhibition of TSH-biotin binding [18]: -4.8%
Inhibition of binding (%) [19]: 1.1%

Reference: patent publication US20110300138A1 (published 2011)
